# Assay results taken from patent US20100130424A1 (Janssen / Centocor, published 2010).
# Several values for one entry are separate records, joined by “and”; a condition that tells them apart may be missing. Identical values can stand only once. No end group written: not given here. *: point of attachment. Succinimide(1-Et,3-yl) = CCN1C(=O)CC(*)C1=O
# T1: human CRH receptor type 2 (human, UniProt Q13324 1-411)
# T1 sequence (looked up): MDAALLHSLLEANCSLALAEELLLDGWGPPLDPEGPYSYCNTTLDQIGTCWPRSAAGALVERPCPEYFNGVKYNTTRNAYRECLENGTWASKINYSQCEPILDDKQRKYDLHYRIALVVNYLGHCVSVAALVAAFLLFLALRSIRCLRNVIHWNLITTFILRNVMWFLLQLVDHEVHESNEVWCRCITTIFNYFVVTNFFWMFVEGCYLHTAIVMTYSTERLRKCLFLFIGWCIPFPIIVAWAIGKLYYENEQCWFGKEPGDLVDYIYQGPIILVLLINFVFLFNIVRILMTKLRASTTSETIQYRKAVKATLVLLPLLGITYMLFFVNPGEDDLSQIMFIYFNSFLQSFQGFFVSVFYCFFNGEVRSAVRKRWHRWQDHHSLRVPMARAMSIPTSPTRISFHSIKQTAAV
# T2: human CRH receptor type 1 (human, UniProt P34998 24-415)
# T2 sequence (looked up): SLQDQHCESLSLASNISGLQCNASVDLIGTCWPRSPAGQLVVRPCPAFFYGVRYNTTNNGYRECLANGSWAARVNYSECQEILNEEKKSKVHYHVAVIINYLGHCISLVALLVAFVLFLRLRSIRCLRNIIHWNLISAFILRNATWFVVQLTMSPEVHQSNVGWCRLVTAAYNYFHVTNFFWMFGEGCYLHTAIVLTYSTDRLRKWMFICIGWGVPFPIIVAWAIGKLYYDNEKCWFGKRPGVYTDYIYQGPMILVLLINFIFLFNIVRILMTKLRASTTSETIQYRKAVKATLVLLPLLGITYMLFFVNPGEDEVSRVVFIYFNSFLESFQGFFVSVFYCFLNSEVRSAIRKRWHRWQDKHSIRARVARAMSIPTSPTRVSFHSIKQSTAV
# Target: T1, human CRH receptor type 2
# Assay: cell-based or functional assay
# Conditions: not given
# human urocortin 2 (peptide), sequence (peptide): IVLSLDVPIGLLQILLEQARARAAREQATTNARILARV
# h-SRP (peptide), sequence (peptide): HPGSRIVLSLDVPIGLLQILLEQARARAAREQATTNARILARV
Molecule,"pA50, cAMP","αmax, cAMP"
h-SRP (peptide),9.32 -log M and 9.58 -log M and 9.23 -log M,114 and 109 and 98.6
human urocortin 2 (peptide),9.51 -log M,115 and 129
DDPPLSIDLTFHLLRTLLELARTQSQRERAEQNRIIFDSV-NH2 [r-UCN1],9.08 -log M,110

# Same assay, conditions: scale: % of the maximum response obtained to h-SCP
row,Molecule,"αmax, cAMP"
1,human urocortin 2 (peptide),117

# Target: T2, human CRH receptor type 1
# Assay: cell-based or functional assay
# Conditions: not given
row,Molecule,"pA50, cAMP"
1,DDPPLSIDLTFHLLRTLLELARTQSQRERAEQNRIIFDSV-NH2 [r-UCN1],9.19 -log M

# Target: T1, human CRH receptor type 2
# Assay: cell-based or functional assay
# Conditions: not given
# Remark: another data set of the same source
Molecule,"pA50, cAMP","αmax, cAMP"
"TLSLDVPTNIMNLLFNIAKAKNLRAQAAANAHLMAQI-NH2 [CRHR2 peptide agonist with shortened amino acid sequence, 37aa, SEQ ID NO: 108]",8.49 -log M,106 % of the maximum response to h-SCP
"KFTLSLDVPTNIMNLLFNIAKAKNLRAQAAANAHLMAQI-NH2 [CRHR2 peptide agonist with shortened amino acid sequence, 39aa, SEQ ID NO: 107]",9.25 -log M,111 % of the maximum response to h-SCP

# Target: T1, human CRH receptor type 2
# Assay: cell-based or functional assay
# Conditions: not given
# Remark: another data set of the same source
Molecule,"Log DR against h-SCP, cAMP [log10 ratio]","pA50, cAMP"
"TKFTLSLCVPTNIMNLLFNIAKAKNLRAQAAANAHLMAQI-NH2 [Cys-variant CRHR2 peptide agonist, SEQ ID NO: 9]",1.89,7.8 -log M
"TKFTLSLDVPCNIMNLLFNIAKAKNLRAQAAANAHLMAQI-NH2 [Cys-variant CRHR2 peptide agonist, SEQ ID NO: 12]",1.72,7.86 -log M
"TKFTLSLDVCTNIMNLLFNIAKAKNLRAQAAANAHLMAQI-NH2 [Cys-variant CRHR2 peptide agonist, SEQ ID NO: 11]",0.82,8.76 -log M
"TKFTLSLDVPTNIMNC(Succinimide(1-Et,3-yl))LFNIAKAKNLRAQAAANAHLMAQI-NH2 (N-terminus assumed; SMILES CC[C@H](C)[C@H](NC(=O)[C@H](CCC(N)=O)NC(=O)[C@H](C)NC(=O)[C@H](CCSC)NC(=O)[C@H](CC(C)C)NC(=O)[C@H](Cc1c[nH]cn1)NC(=O)[C@H](C)NC(=O)[C@H](CC(N)=O)NC(=O)[C@H](C)NC(=O)[C@H](C)NC(=O)[C@H](C)NC(=O)[C@H](CCC(N)=O)NC(=O)[C@H](C)NC(=O)[C@H](CCCNC(=N)N)NC(=O)[C@H](CC(C)C)NC(=O)[C@H](CC(N)=O)NC(=O)[C@H](CCCCN)NC(=O)[C@H](C)NC(=O)[C@H](CCCCN)NC(=O)[C@H](C)NC(=O)[C@@H](NC(=O)[C@H](CC(N)=O)NC(=O)[C@H](Cc1ccccc1)NC(=O)[C@H](CC(C)C)NC(=O)[C@H](CSC1CC(=O)N(CC)C1=O)NC(=O)[C@H](CC(N)=O)NC(=O)[C@H](CCSC)NC(=O)[C@@H](NC(=O)[C@H](CC(N)=O)NC(=O)[C@@H](NC(=O)[C@@H]1CCCN1C(=O)[C@@H](NC(=O)[C@H](CC(=O)O)NC(=O)[C@H](CC(C)C)NC(=O)[C@H](CO)NC(=O)[C@H](CC(C)C)NC(=O)[C@@H](NC(=O)[C@H](Cc1ccccc1)NC(=O)[C@H](CCCCN)NC(=O)[C@@H](N)[C@@H](C)O)[C@@H](C)O)C(C)C)[C@@H](C)O)[C@@H](C)CC)[C@@H](C)CC)C(N)=O) [Cys-variant of stresscopin peptide with N-Ethylsuccinimide (NES) reactive group, SEQ ID NO: 54]",-0.08,9.55 -log M
"TKFTLSLDCPTNIMNLLFNIAKAKNLRAQAAANAHLMAQI-NH2 [Cys-variant CRHR2 peptide agonist, SEQ ID NO: 10]",1.3,8.28 -log M
"TKCTLSLDVPTNIMNLLFNIAKAKNLRAQAAANAHLMAQI-NH2 [Cys-variant CRHR2 peptide agonist, SEQ ID NO: 4]",1.03,8.65 -log M
"CKFTLSLDVPTNIMNLLFNIAKAKNLRAQAAANAHLMAQI (NES-PEG (about 20 kDa) on Cys 1; C-terminal amide) [Pegylated Cys-variant CRHR2 peptide agonist (NES linker, PEG about 20 kDa), SEQ ID NO: 55]",~1.61,~7.93 -log M
"TKFTLSLDVPCNIMNLLFNIAKAKNLRAQAAANAHLMAQI (NES-PEG (about 20 kDa) on Cys 11; C-terminal amide) [Pegylated Cys-variant CRHR2 peptide agonist (NES linker, PEG about 20 kDa), SEQ ID NO: 65]",~2.75,~6.82 -log M
"TKFCLSLDVPTNIMNLLFNIAKAKNLRAQAAANAHLMAQI (NES-PEG (about 20 kDa) on Cys 4; C-terminal amide) [Pegylated Cys-variant CRHR2 peptide agonist (NES linker, PEG about 20 kDa), SEQ ID NO: 58]",~2.4,~7.14 -log M
"TKFTLSCDVPTNIMNLLFNIAKAKNLRAQAAANAHLMAQI (NES-PEG (about 20 kDa) on Cys 7; C-terminal amide) [Pegylated Cys-variant CRHR2 peptide agonist (NES linker, PEG about 20 kDa), SEQ ID NO: 61]",> 3.32,~6.22 -log M
"TCFTLSLDVPTNIMNLLFNIAKAKNLRAQAAANAHLMAQI (NES-PEG (about 20 kDa) on Cys 2; C-terminal amide) [Pegylated Cys-variant CRHR2 peptide agonist (NES linker, PEG about 20 kDa), SEQ ID NO: 56]",~2.34,~7.2 -log M
"TKFTLSLDVCTNIMNLLFNIAKAKNLRAQAAANAHLMAQI (NES-PEG (about 20 kDa) on Cys 10; C-terminal amide) [Pegylated Cys-variant CRHR2 peptide agonist (NES linker, PEG about 20 kDa), SEQ ID NO: 64]",~2.59,~6.98 -log M
"TKFTLSLDCPTNIMNLLFNIAKAKNLRAQAAANAHLMAQI (NES-PEG (about 20 kDa) on Cys 9; C-terminal amide) [Pegylated Cys-variant CRHR2 peptide agonist (NES linker, PEG about 20 kDa), SEQ ID NO: 63]",~2.12,~7.45 -log M
"TKFTCSLDVPTNIMNLLFNIAKAKNLRAQAAANAHLMAQI (NES-PEG (about 20 kDa) on Cys 5; C-terminal amide) [Pegylated Cys-variant CRHR2 peptide agonist (NES linker, PEG about 20 kDa), SEQ ID NO: 59]",~2.32,~7.22 -log M
"TKFTLSLCVPTNIMNLLFNIAKAKNLRAQAAANAHLMAQI (NES-PEG (about 20 kDa) on Cys 8; C-terminal amide) [Pegylated Cys-variant CRHR2 peptide agonist (NES linker, PEG about 20 kDa), SEQ ID NO: 62]",> 3.48,~6.06 -log M
"TKFTLCLDVPTNIMNLLFNIAKAKNLRAQAAANAHLMAQI (NES-PEG (about 20 kDa) on Cys 6; C-terminal amide) [Pegylated Cys-variant CRHR2 peptide agonist (NES linker, PEG about 20 kDa), SEQ ID NO: 60]",> 3.22,~6.32 -log M
"TKCTLSLDVPTNIMNLLFNIAKAKNLRAQAAANAHLMAQI (NES-PEG (about 20 kDa) on Cys 3; C-terminal amide) [Pegylated Cys-variant CRHR2 peptide agonist (NES linker, PEG about 20 kDa), SEQ ID NO: 57]",~1.9,~7.64 -log M
"CKFTLSLDVPTNIMNLLFNIAKAKNLRAQAAANAHLMAQI-NH2 [Cys-variant CRHR2 peptide agonist, SEQ ID NO: 2]",0.72,8.97 -log M
"TKFTLSCDVPTNIMNLLFNIAKAKNLRAQAAANAHLMAQI-NH2 [Cys-variant CRHR2 peptide agonist, SEQ ID NO: 8]",2.86,~6.82 -log M
"TCFTLSLDVPTNIMNLLFNIAKAKNLRAQAAANAHLMAQI-NH2 [Cys-variant CRHR2 peptide agonist, SEQ ID NO: 3]",0.72,8.97 -log M
"TKFTLCLDVPTNIMNLLFNIAKAKNLRAQAAANAHLMAQI-NH2 [Cys-variant CRHR2 peptide agonist, SEQ ID NO: 7]",2.08,7.6 -log M
"TKFTCSLDVPTNIMNLLFNIAKAKNLRAQAAANAHLMAQI-NH2 [Cys-variant CRHR2 peptide agonist, SEQ ID NO: 6]",0.61,9.07 -log M
"TKFCLSLDVPTNIMNLLFNIAKAKNLRAQAAANAHLMAQI-NH2 [Cys-variant CRHR2 peptide agonist, SEQ ID NO: 5]",0.76,8.93 -log M

# Target: T1, human CRH receptor type 2
# Assay: inferred from the test as antagonist at 10 µM, cAMP assay on h-CRHR2 SK-N-MC cells
# Conditions: not given
row,Molecule,"KA (receptor affinity, in µM) [µM]"
1,"LDVPTNIMNLLFNIAKAKNLRAQAAANAHLMAQI-NH2 [CRHR2 peptide agonist with shortened amino acid sequence, 34aa, SEQ ID NO: 111]",> 10
2,"DVPTNIMNLLFNIAKAKNLRAQAAANAHLMAQI-NH2 [CRHR2 peptide agonist with shortened amino acid sequence, 33aa, SEQ ID NO: 112]",> 10
3,"SLDVPTNIMNLLFNIAKAKNLRAQAAANAHLMAQI-NH2 [CRHR2 peptide agonist with shortened amino acid sequence, 35aa, SEQ ID NO: 110]",> 10

# Target: T1, human CRH receptor type 2
# Assay: radioligand competition, [125I]-anti-sauvagine-30, membranes of h-CRHR2 SK-N-MC cells
# Conditions: not given
row,Molecule,pKI
1,h-SRP (peptide),7.57 -log M
2,human urocortin 2 (peptide),7.74 -log M
3,DDPPLSIDLTFHLLRTLLELARTQSQRERAEQNRIIFDSV-NH2 [r-UCN1],8.51 -log M
